Experimental data published in patent US20260274986A1, “USE OF CHIMERA IN TARGETED PROTEIN DEGRADATION TECHNOLOGY” (SUN YAT-SEN UNIVERSITY, priority 2023, published 2026).

Key:
EGFR = target: T1, EGFR (Homo sapiens, UniProt P00533); experiment: Chimera-induced degradation of EGFR, Western blot; format: cell-based; settings: 48 hours
T1 construct: two EGFR-high-expressing cell lines-A431, and A549-were selected for the experiment; endogenous in cells; host or cells: A431, A549
Procedure: In this Example, two EGFR-high-expressing cell lines-A431, and A549-were selected for the experiment. The cells were plated one day before the administration of chimeras. […] Subsequently, the cells were lysed using a lysis buffer, total proteins were extracted, and protein concentration was quantified using a BCA protein assay kit (Thermo Fisher). Proteins were separated by 10% SDS-PAGE and transferred onto polyvinylidene fluoride (PVDF) membranes via electroblotting. The membranes were blocked with 5% skim milk at room temperature for 1 hour. After removing the milk, the membranes were incubated with a primary antibody overnight at 4° C. on a shaker. The next day, the membranes were quickly immersed in TBST and washed three times, followed by incubation with a secondary antibody at room temperature for 1 hour. Finally, the proteins were detected and recorded using a chemiluminescence reagent and a Tanon chemiluminescence imaging system, and quantitative analysis was performed on the proteins using ImageJ. All primary antibodies used in this Example were an anti-EGFR antibody.

CDK5 = target: T2, CDK5 (Homo sapiens, UniProt Q00535); experiment: Chimera-induced degradation of intracellular target CDK5, Western blot; format: cell-based; settings: T24 cells; 48 hours; compared to PEP2 and P1
T2 construct: a CDK5-high-expressing cell line—T24 human bladder cancer cells—was selected for the experiment; endogenous in cells; host or cells: T24
Procedure: In this Example, a CDK5-high-expressing cell line—T24 human bladder cancer cells—was selected for the experiment. The cells were plated one day before the administration of chimeras. Each of PEP2, P1 and PEP-C4-P1 was diluted in complete medium and incubated with the cells for 48 hours. Subsequently, the cells were lysed using a lysis buffer, total proteins were extracted, and protein concentration was quantified using a BCA protein assay kit (Thermo Fisher). Proteins were separated by 10% SDS-PAGE and transferred onto polyvinylidene fluoride (PVDF) membranes via electroblotting. The membranes carrying the proteins were blocked with 5% skim milk at room temperature for 1 hour. After removing the milk, the membranes were incubated with a primary antibody overnight at 4° C. on a shaker. The next day, the membranes were quickly immersed in TBST and washed three times, followed by incubation with a secondary antibody at room temperature for 1 hour. Finally, the proteins were detected and recorded using a chemiluminescence reagent and a Tanon chemiluminescence imaging system, and quantitative analysis was performed on the proteins using ImageJ. All primary antibodies used in this Example were an anti-CDK5 antibody.

T2 sequence (Q00535 whole entry): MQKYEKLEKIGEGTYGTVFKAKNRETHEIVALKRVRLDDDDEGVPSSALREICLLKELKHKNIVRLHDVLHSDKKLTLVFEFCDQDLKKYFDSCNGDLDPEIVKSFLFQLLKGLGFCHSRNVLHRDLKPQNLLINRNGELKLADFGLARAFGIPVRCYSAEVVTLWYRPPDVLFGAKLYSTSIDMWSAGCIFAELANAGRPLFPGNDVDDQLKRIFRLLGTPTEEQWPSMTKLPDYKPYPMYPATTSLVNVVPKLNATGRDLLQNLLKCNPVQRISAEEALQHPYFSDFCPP

Row | Substance | degradation of EGFR (Western blot, FIG. 6C) (EGFR; A431 cells) | degradation of EGFR (Western blot, FIG. 6C) (EGFR; A549 cells) | degradation of CDK5 (Western blot, FIG. 15) (CDK5)
1 | PEP1-C3-P1: EGFR-binding polypeptide PEP1 (LARLLT) fused at C-terminus to C3-P1, SEQ ID NO: 135 (LARLLTRRRRKSFHDDSDEDLLHI) | obvious degradation effect on the membrane receptor EGFR | obvious degradation effect on the membrane receptor EGFR | –
2 | PEP1-P1: EGFR-binding polypeptide PEP1 (LARLLT) fused at C-terminus to P1, SEQ ID NO: 134 (LARLLTSFHDDSDEDLLHI) | obvious degradation effect on the membrane receptor EGFR | obvious degradation effect on the membrane receptor EGFR | –
3 | PEP2-C4-P1: CDK5-binding polypeptide PEP2 (RRPPRSPDHKRYFRDKE) fused at C-terminus to C4-P1, SEQ ID NO: 136 (RRPPRSPDHKRYFRDKEYGRKKRRQRRRSFHDDSDEDLLHI) | – | – | obvious degradation effect on CDK5
